The data set in a line: yeast display, Sf9 membrane polyspecificity reagent, FACS + sequencing; frameworks hold sequencing errors. In outline:
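A synthetic nanobody library was expressed on Saccharomyces cerevisiae BJ5465 by galactose induction for 36–48 hours. The library was stained for 1 hour at 4 °C with 10% biotinylated, detergent-solubilized Sf9 membrane reagent and enriched with streptavidin microbeads before FACS. Low and high (top ~1%) gates were set on anti-HA fluorescence for expression and streptavidin fluorescence for reagent binding, and each polyreactivity label reflects the gate of origin.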
With “QVQLVESGGRLVQAGGSLRLSCAASGRIFGRYAMGWYRQAPGKERELVAAISSSGGSTYYADSVKGRFTISRDNAKNTVYLQMNSLKPEDTAVYYCAAEIIKVAYRVAYYYWGQGTQVTVSS”, the “polyreactivity (PSR sort gate)” value was “high polyreactivity”.
As to “QVQLVESGGRLVQAGGSLRLSCAASGRIFKSYAMGWDRQAPGKERELVAAISRSGGRTYYADSVKGRFTISRDTAKNTVYLQMICLKPEDTAVYFCAGTTIVAPYWGQGTQVTVST”, the “polyreactivity (PSR sort gate)” value is “low polyreactivity”.
The value for “QVQLVESGGRLVQAGGSLRLSCAASGRIFRGYAMGWYRQEPGKERELVAAISQSGSSTYYADSVKGRFTISRDNAKNTVYLQMNSLKPEDTAVYYSAVIYVKHFGYWGLGTQVTVSS” was “high polyreactivity”; that for “QVQLVESGGRLVQAGGSLRLSCAASGRIFSINVMGWYRHAPGKERELVAAISKRGGSTYYADSVKGRFTISRDNAKNTVYLQMNSLKPEDTAVFYCAARRHYTYGNGPSRGGQMDYWGQGTQVTVSS” was “high polyreactivity”; that for “QVQLVESGGRLVQAGGSLRLSCAASGRIFTYNAMGWYTQAPGKERELVAGITRRGGSTYYADSVKGRFTISRDNAKNTVYLQMNSLKPEDTAVYYCAATYPNARRYEYWGQGTQVTVSS” was “high polyreactivity”.
For the sequence “QVQLVESGGRLVQAGGSLRLSCAASGRIFVVNAMGWYRQAPGKERELVAAIDRSGGSTYYADSVKGRFTISRDNAKNTVYLQMNSLKPEDTAVYYCNTGRRYYSYRRDYWGQGTQVTVSS”, the “polyreactivity (PSR sort gate)” value was “high polyreactivity”.
Take “QVQLVESGGRLVQAGGSLRLSCAASGRIIAYNAKGWYRQAPGKERELVDAISRSGGSTYYADSVKGRFTISRDNAKNTVYLQMNSLKPEDTAVYYCAASLKVPYATMNYWGQGTQVTVSS”: the “polyreactivity (PSR sort gate)” value is on record as “high polyreactivity”.
To “QVQLVESGGRLVQAGGSLRLSCAASGRTFARNAMGWYRQAPGKERELVAAISWSGGSTYYADSVKGRFTISRDNAKNTVYLQMNSLKPEDTAVYYCAARICYYNYWGQGTQVTVSS” belongs “high polyreactivity”; to “QVQLVESGGRLVQAGGSLRLSCAASGRTFGWYAMGWYRQAPGKERELVAAINRRVGRTYYADSVKGRFTISRDNAKNTVYLQMNSLIPEDTAVYYCAVKQGFYSRALKLYYWGQGTQVTVSS”, “high polyreactivity”.
With “QVQLVESGGRLVQAGGSLRLSCAASGRTFSNAIGWDRQAPGKEREEVADISSGGSTNYADSVKGRFTISRDNAKNTVYLQMNSLKPEDTAVYYCAAVSGSLYGYSDDYWGQGTQVTVSS”, the “polyreactivity (PSR sort gate)” value is recorded as “low polyreactivity”.
The value for “QVQLVESGGRLVQAGGSLRLSCAASGRTFVYNAMGWYRQAPGKESELVAAISSGGGTNYADSVKGRFTISRDNAKNTVYLQMNSLKPEDTAVYYCAAGFDGSRHPGFDSWGQGTQVTVSS” was “low polyreactivity”.
To “QVQLVESGGRLVQAGGSLRLSCAASGSIFFLYAKGWYRQAPGKERELVAAISGGGGSTYYADSVKGRFTISRDIAKYTVYLLMNSLKPEDTAVYYCAALSKTRGGFWGQGTQVTVSS” belongs “high polyreactivity”.
To “QVQLVESGGRLVQAGGSLRLSCAASGSIFNAYAMGWYRQAPGKEREFVAVITSNGGITYYADSVKGRFTISRDNAKNTVYLQMNSLKPEDTAVYYCAAYEIYYEFDSWGQGTQVTVSS” belongs “low polyreactivity”; to “QVQLVESGGRLVQAGGSLRLSCAASGSIFQYYARGWYRQAPGKVREFVSAITSDGSSTYYADSVKGRFTISRDNAKNTVYLQMKSLKPEDTAVYYCAAGWVGYRRPSMYYWGQVTQVTVSS”, “high polyreactivity”.
As for “QVQLVESGGRLVQAGGSLRLSCAASGSTFDENAMGWYRQAPGKERELVAAISRRGVSTYYADSVKGRFTISRDNEKNTVYLQMNSVKPEDTAVYYCARRYGGVGMYYWGQGTQVTVSS”, the “polyreactivity (PSR sort gate)” value was “high polyreactivity”.
For the sequence “QVQLVESGGRLVQAGGSLRLSCAASGSTFGRYTMGWYRQAPGKERELVTAITSSGDSTYYADSVKGRFTISRDNAKNTVYLQMNSLKPEDTAVYDCAADYADLNDYWGQGTQVTVSS”, the “polyreactivity (PSR sort gate)” value is listed as “low polyreactivity”.
The value for “QVQLVESGGRLVQAGGSLRLSCAASGSTFGWYAMAWYRPAPGKERELVAAIRSNGGSTYYADSVKGRFTISRDNAKNTVYLQMNSLKPEDTAVYYCAARGSPSKHHWYDYWGQGTQVTVSS” was “low polyreactivity”; that for “QVQLVESGGRLVQAGGSLRLSCAASGSTFTKYALGWYRPAPGKERELVAAISRSGGSTYYADSVKGRFSISRDNAKNTVYLQMNSLKPEDTAVYYCAARDSSRNYFGDGARDYWGQCTQVTVSS” was “high polyreactivity”; that for “QVQLVESGGRLVQAGGSLRLSCAASGSTFVQNAMGWYRQATGKERELVAAISKSGGRTYYADSVKGRFTISRDNAKNTVYLQMNSLKPEDTAVYYCAAVTVASPTRMDYWGQGTQVTVSS” was “high polyreactivity”.
To “QVQLVESGGRLVQAGGSLRLSCAASGSTFYRNAMGWYRQAPGKERELVASINNGGSTYYADSVKGRFTISRDNAKNTVYLQMNSLKPEDTAVYYCAATESWDYDYWGQGTQVTVSS” belongs “low polyreactivity”; to “QVQLVESGGRLVQAGGSLRLSCAASGSTIAYNAMGWYIQAPGKERELVAANSKGGGSTYYADSVKGRFTISRDNAQNTVYLAMNSLKPAETAVYYCAAVSGYSTGGSRYRYNYWGQGTQVTVSS”, “high polyreactivity”; to “QVQLVESGGRLVQAGGSLRLSCAASGSTITPNSMGWYRQAPGKERELVAAITTGGSTKYADSVKGRFTISRDNAKKTVYLQLTSLNPADTAVYYCNTDRGAYFYVIWPPWTYDWGQGTQVTVTS”, “low polyreactivity”.
The value for “QVQLVESGGRLVQAGGSLRLSCAASGSTLYAYAMGWYRPAPGKERELVAAIRTGGSTYYADSVNGRFTISRDNAKNTVYLQMNSLKPEDTAVYYCAADHGYQYGYWGQGTQVTVSS” was “low polyreactivity”; that for “QVQLVESGGRLVQAGGSLRLSCAASGYTYDRYAMGWYRQAPGKERQLVAAISSSGTSTYYADSVKGRFTISRDNEKNTVYLQMNSLKPEDTAVYYCAATRLKLKFAYWGQGTQVTVSS” was “high polyreactivity”.
As to “QVQLVESGGRLVQAGGSLRLSCAPSGFIFGDNGIGGSRQSPGKEMELVAGINRRSGTYYADSVKGRFTISRDNAKNTVYLLMNSLKREDTAVYYCAARLDAYQSGRYYYWGQGTQVTLSS”, the “polyreactivity (PSR sort gate)” value is “high polyreactivity”.
The value for “QVQLVESGGRLVQAGGSLRLSCAPSGFMFADYMGWYRQAPGKERALVASISSTGSSTYADSVKGRFTITRDNAKNTVYLPMNSLKPEDTAVYDCAATGVWYSSNDYASEYDYWGQGTQVTVSS” was “high polyreactivity”; that for “QVQLVESGGRLVQAGGSLRLSCAPSGSIFWGYAMGWYRQAPGKERELVAVISRGGSTYYADSVKGRFTISRDNAKNTVYLKMNSLKPEDTAVYYCAASSSWFYSPEYDYWGQGTQVTVSS” was “low polyreactivity”.
The value for “QVQLVESGGRLVQAGGSLRLSCASSGRTFYPYVMGWYRQAPGKERELVAAISSGTSTYYADSVKGRFTISRDNAKNTVYLQMNSLKPEDTAVYYCAVRVYTYVLYDFWGQGTQVTVSS” was “high polyreactivity”; that for “QVQLVESGGRLVQAGGSLRLSCSASGLTFQYYAMGWYRQAPGKERELVATINSGGSTKYADSVKGRFTISRDNAKNTVYLQMNRLKPEDTAVYYCAADPYRRYRRPSRYGYWGQGTQVTVSS” was “high polyreactivity”.
For “QVQLVESGGRLVQAGGSLRLSGAASVLTFNFNAMGWYRQAPGKERELVAANSYRAGSTYYADSVKGRFTISRDNAKNTVYLQMNSLKPEDTAVYYCAKPTYRFYWGDFDYWGQGTQVTVSS”, the “polyreactivity (PSR sort gate)” value is “low polyreactivity”.
To “QVQLVESGGRLVQAGGSLRLTCAASGFIFKTNGMRWYRKAPGKERELVAAITSRGGSTYYADSVKGRFTISRDNAKNNVYLQMNSLKPEDTAVYYCAARGSRYTDYDYWGQGTHVTVSS” belongs “high polyreactivity”.
As for “QVQLVESGGRLVQAGGSLRLTCAASGSTIYQYVMRWYRQAPGKERELVAVITWSGGRTYYADSVKGRFTISRDNAKNTVYLQMNSLKPEDTAGYYCAADPLSGYDYWGQGTHVTVSS”, the “polyreactivity (PSR sort gate)” value is reported as “low polyreactivity”.
To “QVQLVESGGRLVQAGGSLSLSCAASGSIFYRNAMGWYSQAPAKEWEFVAVITSSGTSTYYADSVKGRFTISRDNEKNTVSFQMKSLKPEDTAVYYCAADESSPSRGDYWGQGTQVSVSS” belongs “low polyreactivity”; to “QVQLVESGGRLVQAGGTLRLSCAASGRIFGYNAMGWYRQAPGKERHLVAVITSGGSKNYADSVKGRFTISRDNAKHTVYLQMNSVKPEDTAVYYCPRRIWDRWSYPVRVRYYYWGQGTQVTGSS”, “high polyreactivity”.
Consider “QVQLVESGGRLVQAGRSLRLSCAASGGTFQRYVMGWYRQAPGKERELVAAISRSGSTYADSVKGRFTISRDNAKNTGYLQMNSLKPEDTAVYYCNVVRYYRYYLHGYDYWGQGTQVTVSS”, for which the “polyreactivity (PSR sort gate)” value is reported as “high polyreactivity”.
To “QVQLVESGGRLVQAGRSLRLSCAASGINFYGYAMGWYRQAPGKERELVAAITSYDGSTYYADSVKGRFTISRDNAKNTVYLQMNSLKPEDTAVYYCAAYRYGSRGGYWGQGTQVTVSS” belongs “high polyreactivity”.
Take “QVQLVESGGRLVQPGGSLSLSCADSGNIFYWNTMGWYRQAPGKERELVATISWSGRTTYYADSVKGRFTISRDNEKNTVYLQMNSLKPEDTAVYYCAADVTSGVYSFSFDYLGQGTQVTVSS”: the “polyreactivity (PSR sort gate)” value is recorded as “low polyreactivity”.
To “QVQLVESGGRVLQAGGSLRLSCAASGRIFSYNDMGWYRQAPGKERELVATITSGDSTISADSVKGRFTISRDNAKNTVYLQMNSLKPEDTAVYYCATDIYGLPVDYWGQGTQVTVSS” belongs “low polyreactivity”; to “QVQLVESGGSLVQAGGSLRLSCAASGRIFITNAMGAYRQAPGKERELVAAIRRRGGNTYYADSVKGRFTISRDNAKNTVYLQMNSLKPEDTAVYYCAVYPRPYKYNYWGQGTQVTVSS”, “high polyreactivity”; to “QVQLVESGGSLVQAGGSLRLSCDASGRTFGTNAMGWYRQAPRKETELVAAISWRGTSTYYADSVKGRFTNSRDNAKNTVYLQMNSLKPEDTAVYYCAARGYRADQWEYDYWGQGTQVTVSS”, “low polyreactivity”.
“QVQLVESGGSLVQAGGSLRLSCDASVLTFPVYAMGWYRQAPGKEREFVASISGRGASTYYADSVKGRFTISRDNAKNTVYLQMNSLIPEDTAVYYCNADVWLLSYFPEYDYWGQGNQVTVSS”: the “polyreactivity (PSR sort gate)” value was “low polyreactivity”.
